Experimental data as given in publication PMC4208029 (Scientific Reports, 2014).

Biological target: T1, human full-length glucose transporter GLUT-1 (human, UniProt P11166 1-492)
T1 sequence (looked up): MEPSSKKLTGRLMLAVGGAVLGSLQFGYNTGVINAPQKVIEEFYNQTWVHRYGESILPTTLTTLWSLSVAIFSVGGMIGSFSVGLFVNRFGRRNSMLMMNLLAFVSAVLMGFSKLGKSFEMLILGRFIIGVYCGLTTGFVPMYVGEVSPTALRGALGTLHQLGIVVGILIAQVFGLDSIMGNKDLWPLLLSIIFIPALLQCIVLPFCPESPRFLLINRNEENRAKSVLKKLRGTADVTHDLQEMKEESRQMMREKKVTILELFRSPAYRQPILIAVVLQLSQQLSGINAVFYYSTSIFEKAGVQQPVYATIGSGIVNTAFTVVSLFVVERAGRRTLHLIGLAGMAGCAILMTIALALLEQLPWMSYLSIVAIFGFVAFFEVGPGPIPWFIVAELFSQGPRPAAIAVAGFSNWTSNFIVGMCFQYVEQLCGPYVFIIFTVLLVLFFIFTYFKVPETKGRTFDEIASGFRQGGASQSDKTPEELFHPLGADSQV
Experiment: SPR

B1: Nb-GLUT-1 (VHH)
VHH: QVQLLESGGGLVQPGGSLRLSCAASGFTFSSYAMSWVRQAPGKGLEWVSTITAKGRQTYYADSVKGRFTISRDNSKNTLYLQMNSLRAEDTAVYYCATGPMYQPQFGSWGQGTLVTVSS
Kd: 22.3 nM
koff: 0.0016 s⁻¹
kon: 120000 M⁻¹ s⁻¹
